Experiment: yeast display, Sf9 membrane polyspecificity reagent, FACS + sequencing; frameworks hold sequencing errors
Method in brief: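 A nanobody's polyreactivity label depends on the gate it was sorted from. Yeast display cells were stained with 10% biotinylated, detergent-solubilized Sf9 membrane reagent for 1 hour at 4 °C, enriched on streptavidin microbeads and sorted by FACS. The low and high (top ~1%) gates were set on anti-HA fluorescence for expression and streptavidin fluorescence for reagent binding.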

Row | Sequence | polyreactivity (PSR sort gate)
1 | QVQLVESGRGLVQAGGSLRLSCAASGITFEYYAMGWYRQAPGKERELVAAIDTGGSTNYADSVKGRFTISRDNAKNTVYLQMNSLKPEDTAVYYCAADWSWWDGEDYHFEYDYWGQGTQVTVSS | low polyreactivity
2 | QVQLVESGGGLVQAGGSLRLSCAASGFIFASYAMGWYRQAPGKERELVAAITQSGGITYYADSVKGRFTISRDNAKNTVYLQMTSLKPEDTAVYYCNTPLLKRTTRGRERNYWGQGTQVTVSS | low polyreactivity
3 | QVQLVESGGGLLQAGGSLRLSCAASGRTFSGYTMGWYRQAPGKERELLATIRDRGGSTYYADSVKGRFTISRDNAKNTVYLQMNSLTPEDSAVYYCAARRGRRYYYWGQGTQVTVSS | high polyreactivity
4 | QVQLVESGGGLVQAGGSLRLSCAASGFIFSLYAMGWYRQAPGKERELVAAINWNGGRTYYADSVKGRFTISRDNAKNTVYLQMNSLKPEDTAVYYCAKLGYLGLDYWGQGTQVTVSS | high polyreactivity
5 | QVQLVESGGGLVQAGGSLRLSCAATGSTFIFYAMGWYRQAPGKERELVAAISWSGGSTYYADSVKGRFTISRDNAKNTVYLQMNSLKPEDTAVYYCNARWSSWYIHSHYYYWGQGTQVTVSS | high polyreactivity
6 | QVQLVESGGGLVQAGGSLRLSCAASGRSFVLYTMGWSRQAPGKEREWVAAISGSGGRTYYADSVKGRFTISRDHAKNTVNLQMNSLKPEDTAVYYCAAYGQGLPLYGYWGPGTQVTVSS | high polyreactivity
7 | QVQLVESGGGLVQAGGSLRLSCAASGIIFSPYARGWYRQAPGKERELVAAISYSGGSTYYADSVKGRFTISRDNAKNTVYLQMNSLKPEDTAVYYCAVVYSYYLAVLGYWDYDYWGQGTQVTVSS | low polyreactivity
8 | QVQLVESGGGLVQAGGSLRLSCAASGFTFYAYTMGWYRQAPGKERELVAAIRTGSSTYYADSVKGRFTISRDNAKITVYLQMNSLKPEDTAVYYCDAPRWRRPYRYDYWGQGTQVTVSS | high polyreactivity
9 | QVQLVESGGGLVQAGGSLRLSCAASGSTFATYTMGWYRQAPGKERELVATISRSGTTTYYADSVKGRFTISRDNAKYTVYLQMNSLKPEDTAVYYCNTLRAYWTYHFYGAVRDGYDYWGQGTQVTVST | low polyreactivity
10 | QVQLVESGGGLDQAGGSLRLSCPASGSTFSNYAMGWYRQEPGKERELVAAISVRGGSTYYADSVKGRFTISRDNAKNTVYLQMNSLKPEDTAVYYCNADTDYRDDMDYWGQGTQVTVSS | high polyreactivity
11 | QVQLVESGGGLVQAGGSLRLSCAASGRTLSVYAMGWYRQAPGKERELVAAITWRGGSTYYADSVKGRFTISRDNAKNTVYLQMNSLKPEDTAVYYCAAEDYTYNGGGYEYWGQGTQVTVSS | low polyreactivity
12 | QVQLVESGGGLVQAGGSLRLSCAASGSTFSYNAMGWYRQAPGKERELVAAISRGGITNYADSVKGRFTISRDNAKNTVYLQMNSLKPEDTAVYYCNAGYLGGPSYEYWGQGTLVTVSS | low polyreactivity
13 | QVHLVESVGGLFQAGGSLRLSCDASGRTFPINAMGWYRQAPGKERELVARISRTSGSTYYADSVKGRFTISRDNAKNTVYLQMNSLNPEDTAVYYCAAVRDKYFRARYGYWGQGTQVTVSS | high polyreactivity
14 | QVQLVESGGVLVQAGGSLRLSCAAAGRIFIWNAMGWYRQAPGKERELDAAISSGGTYYADSVKGRFTISRDNAKNTVYLQMNSLKPEDTAVYYCAADWEVYVSEFVYWGQGTQVTVSS | low polyreactivity
15 | QVQLVESGGGLVQAGGSLRLSCASSRINFYLYAMGWYRQAPGIERELVAAISRRGVSTYYADSVKGRFTISRDNAKNSVYLEMKSLKAEDTGVYYCAAAGFGYTGEEFWGQGTQVTVSS | high polyreactivity
16 | QVQLVESGGGLVQAGGSLRLSCAASGSIFTVNAMGWYRQAPGKERELVATISVTGGSTYADSVKGRFTISRENAKNTVYLQMNSLKPEDTAVYYCAADKTVRWDFDYRGQGTQVTVSS | low polyreactivity
17 | QVQLVESGGGLVQAGGSLRLSCAASGSIFYPYAMGWYRQATGKERELVAVITDTGSTYYADSVKGRFTISRDNAKNTVYLQMNSLKPEDTAVYYCYRTSYVKTPTKRYNYWGQGTQVTVSS | low polyreactivity
18 | QVQLVESGGGLVQAGGSLRLSCAASGFTYNRYAMGWYRQAPGKERELVAGISWGGGSTYYADSVKGRFTISRDNAKNTVYLQMNSLKPEDTAVYYCAAGWQHYRRYGSYDYWGQGTQVTVSS | high polyreactivity
19 | QVQLVESGGGLVQAGGSLRLSCAASGRIFDKYAMGWYRQAPGKERELVAAIDWSGGSTYYADSVKGRFTISRDNAKNTVYLQMNSLKPEDTAVYYCAAYWYYEDGQSEARLYGYDYWGQGTQVTVSS | low polyreactivity
20 | QVQLVESGGGLVQAGGSLRLSCAASGRTFYANTMGRYRQAPGTERELVAGITSGGSTSYADSVKGRFTISRDNAKNTVYLQMNSLKPEDTAVYYCAAQFYRYTATGYYADGYWGQGTQVTVSS | low polyreactivity
21 | LVQLLESGGGLVQAGGSLRLSCAASGRIFTGYALGWDRQAPGKDRELVASITWRGASTYYADSVKGRFTISRDNAKTTVFLQKNCLNPEDTAVDYCNVGASARKAYEYWGQGTQVTVSS | high polyreactivity
22 | QVQLVESGGGLVQAGGSLRLSCAASGFTFSFYAMGRYRQAPGKEREYVAAITNSGGSTYYADSVKGRFTISRDNAKNTVYLQMNSLKPEDTGVYYCASKRAWPGYFTYYSWGQGTQVTVSS | high polyreactivity

Row | Sequence | polyreactivity (PSR sort gate)
23 | QVQLVESGGGLVQAGGSLSLSCAASGSIFPHYAMGWYRQAPGKERELVAAISRSGTSTYYADSVKGRFTISRDNAKNTVYLQMNSLNPEDTAVYYCATGYRRDHDDYWGQGTQVTVSS | high polyreactivity
24 | QGQLVESGGGLVQAGGSLRLSCAASGSIFPRYVMGWYRQAPGKERELVAAITTSGGRTYYADSVKGRFTISRDNAKKTVYLQMNSQKPVDTAVYYCAARPWGYRYGSEYVGGDYWGQGTQVTVSS | high polyreactivity
25 | QVQLVESGGGLVQAGGSLRLSCAASGRTFYSNAMGWYRQAPGKERELVAAISSSGGRTFYADSVKGRFTISRDNAKNTVYLQMNSLKPEDTAVYYCAAVPGYPRDSLYNYWGQGTQVTVSS | high polyreactivity
26 | QVQLVESGGGLFQAGGSLRLSCAATGSTYIRYAMGWYRQAPGKEREFVAAITWSGTGTYYADSVKARFTISRDNAKNTVYLQMNSLKPEDTAVYYCAAEWSWVRYSFDYWGQGTQVTVSS | high polyreactivity
27 | QVQLVESGGGLVQAGGSLRLSCAASGSIFSWYAMGWYRQAPGKERELVAAIDSGSKYYADSVKGRFTISRDNAKNTVYLQMNSLKPEDTAVYYCAVDYGYYYWEPWPSDYDMYSWGQGTQVTVSS | high polyreactivity
28 | QVQLVESGGGLVQAGGSLRLSCAASGSIFRPYAMGWYRQAPGKERELVAAISSSSGRTYYADSVKGRFTISRDNAKNTVYLQMNSLKPEDTAVYYCAADRYSFRGDYYWGQGTQVTVSS | low polyreactivity
29 | QVQLVESGGGLVQAGGSLRLSCAASGSTFYSYAMGWYRQAPGKERELVAAITTSGGSTYYADSVKGRFTISRDNAKNTVYLQMNSLKPEDTAVYYCAAYDLYWYEYWGQGTQVTVSS | low polyreactivity
30 | QVQLVESGGGLVQAGGRLRLSCAASGFTFTRYAMGWYRQAPGKERELVAAISWSGGSTYYADSVKGRFTISRDNAKNTVYLQMNSLKPEDTAVYYCAKRGTVRQGGYGYWGQGTQVTVSS | high polyreactivity
31 | QVQLVESGGCLVQAGGSLRLSCAASGRTFGRNAMGWYRKAPGKERDLVAAISRSGASTYYADSVKGRFTISRDNAKITVYLQMNSLKEEDTAVYYCAKDVWGSRYAYDYWGQGTQVTVSS | low polyreactivity
32 | QVQLVESGGGLVQAGGSLRLSCAASGITFLTYAMGWYRQSPGKDRELVASITYSGGTTYYADSVKGRFTISRDNAKNTVYLQMNSLQPEDTAVYYCNTDWRTSVGYDYWGQGTQVTVSS | low polyreactivity
33 | QVQLVESGAGLVQAGGSLRLTCAASGSTFYRYAMGWYREAPGKERELVAAINTGGSTNYADSVKGRFTISRDNAKNTVYLQMYSMKPEDTAVYYCAARFQYYRKYDYWGQGTQVTVSS | low polyreactivity
34 | QVQLVESGGGLVQAGGSLRLSCAASGITLLGNAMGWYRQAPGTERELVAAISRRGGSTYYADSVKGRFTISRDNAKNTVYLQMNSLKPEDTAVYYCAADRYTVVYYRIFDYWGQGTQVTVSS | high polyreactivity
35 | QVQLVESGGGLVQAGGSLRLSCAASGFIFRGNAMGWYRQAPGKERELVAAISVRGGRTYYADSVKGRFTISRDNAKNTVYLQMNSLKPEDTAVYYCAADLYNRGRGSSQSYRTGYDYWGQGTQVTVSS | high polyreactivity
36 | QVQLVESGGGLVQAGGSLRLSCAASGRTFFRYVMGWYRQAPGKERELVAAISRSGGSTYYADSVKGRFTISRDNAKITVYLQMNSLKPEDTAVYYCNTVARSTVVPTEFDYWGQGTQVTVSS | high polyreactivity
37 | QVQLVESGGGLVQAGGSLRLSCAASGFTFGYYAMGWYRQAPGKERELVDAISSSGGSTYYSDSVKGSFTISRDNAKNTVYLQMNSLKPEDTAVYYCNRGTTVRGPGYTNGRDITRYDYWGQGTQVTVSS | high polyreactivity
38 | KVQLVESGGGLVQAGGSLRISCAASGGIFAYNAMGWYRQAPGKEMELVASITSGGNTYYADSVKGRFTISRDNAKNTFYLQMNSLKPEDTAVYYCNARFYRSWRRYSREPGYNYWGQGTQVTVSS | high polyreactivity
39 | QVQLVESGGGLVQAGGSLRLSCAASGRIFTFYAMGWYRQAPAKERELVAAISSGGSTYYADSVKGRFTISRDNAKNTVYLQMNSLKPEDTAVYYCAAEPVWYADYDYWGQGTQVTVSS | low polyreactivity
40 | QVQLVESAGGLVQAGGSLRLSSAASGYNFCSYAMGWYRQAPGKEREFVATISASGGRTYYADSVKGRFTISRDNAKNTVYLQMNSMKPEDTAVYYCNADPGNHAYWYYVEFYYYTYDYWGQGTQVTVSS | low polyreactivity
41 | QVQLVESGGGLVQAGGSLRLSCAASGSTFHYYVMGWYRQAPGKERELDAAIRRSGGTTYYADSVKGRFTISRDNAKNTVYLQMNSLKPEDTAVYYCAAYFFHYHFYQAAYDYWGQGTQVTVSS | low polyreactivity
42 | QVQLVESVGGLVQAGGSLRLSCAASGITFWKYTMGWYRQAPGKERELVAAITGRGGSTYYADSVKGRFTISRDNAKNTVYLQMNSLKPEDTAVYYCAADPYHLQTRFSGLAEFYYWGQGTQVTVSS | low polyreactivity
43 | QVQLVESGGGLVQAGGSLRFSCAASGFIFTYNAMGWYRQAPGKERELVAAITRNGVSTHYADSVKGRFTISRDNAKNSVYLQMNSLKPEDTAVYYCAADPRGWRHYYWGQGTQVTVSS | low polyreactivity
